Results on four molecules are retold here after patent US20250304677A1 (VIB VZW, published 2025).

Residue numbers refer to the chain shown, from its start. In names and notes the source's numbering stands.

Assay [1] deals with T1, human folate receptor alpha (hFRα), recombinant protein (human, UniProt P15328 25-233).
T1 construct: Bought recombinant proteins (His-tagged, or biotinylated via Avi-tag, e.g. AcroBiosystems FO1-H82E2, F01-H52H1); also called hFOLR1; huFOLR1
In words: BLI, Avi-biotinylated FRα on streptavidin biosensors, VHH 100 nM. How it is done: (§1) The binding of humanized variants of 2HFO42 was assessed by kinetic binding analysis to mouse and human FRα protein, biotinylated via an Avi-tag, captured on streptavidin biosensors by biolayer interferometry ^{∘}BLI), essentially as described earlier. VHHs were analysed at 100 nM concentration, and off-rates were determined using fitting of 1:1 langmurian interaction. Dissociation constants were compared to 2HFO42^{∘}Q1E, Q5V, Q108L) ^{∘}P101500004) and 2MFR67 ^{∘}Q1E, Q5V, Q108L) ^{∘}P0150000), respectively.
(In general: BLI is a label-free optical method that tracks binding on a fibre tip over time.)

For assay [2], the target named is T2, mouse folate receptor alpha (mFRα), recombinant protein (mouse, UniProt P35846 25-232).
T2 construct: Bought recombinant proteins (e.g. biotinylated, Acro Biosystems FO1-M82E9); also called mFOLR1; Ms FOLR1
T2 sequence (P35846 25-232 limits assumed): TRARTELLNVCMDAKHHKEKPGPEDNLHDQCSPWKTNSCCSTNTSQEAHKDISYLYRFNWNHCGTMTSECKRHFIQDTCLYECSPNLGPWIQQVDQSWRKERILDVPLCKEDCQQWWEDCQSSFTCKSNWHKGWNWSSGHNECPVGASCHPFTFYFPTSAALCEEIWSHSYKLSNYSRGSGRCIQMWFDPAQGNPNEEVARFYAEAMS
Described as above. How it is done:
as §1

Assay [3] has as its target T2, mouse folate receptor alpha (mFRα), …. As to the kind of experiment: ELISA on mouse FRα, anti-VHH detection. The essentials:
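An ELISA using anti-VHH detection measured how VHH binding to mouse folate receptor alpha changed with dose. Each EC50 was read from the resulting dose-response curve.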
In general terms: An ELISA detects its analyte on a solid surface through an enzyme-linked reagent.

Assay [4] addresses T1, human folate receptor alpha (hFRα), …. In words: competition AlphaLISA against 2MFR67-Flag3-His6 on human FRα. The method, then:
Secondly, the variants were analysed for the capacity to compete with binding of family 3 VHH 2MFR67 to human FRα in a competition AlphaLISA, which is a homogeneous assay without wash steps. In here, human FRα biotinylated through an Avi-tag ^{∘}FO1-H82E2, AcroBiosystems) is captured on streptavidin coated Alpha Donor beads ^{∘}Perkin Elmer, Cat nr. 6760002), while the 2MFR67 is captured on anti-Flag antibody AlphaLISA acceptor beads ^{∘}Perkin Elmer, Cat nr. AL112C). Binding of 2MFR67 to the FRα leads to an energy transfer from one bead to the other, ultimately producing a fluorescent signal. To each well of white low binding 384-well microtitre plates ^{∘}F-bottom, Greiner Cat nr 781904), 5 μl of serial-diluted VHHs are mixed with 5 μl of 2.5 nM monovalent 2MFR67-Flag3-His6 and 5 μl of 15 nM biotinylated human FRα protein. After an incubation for 1 hour at room temperature, streptavidin coated Alpha Donor beads and anti-Flag AlphaLISA acceptor beads were added to a final concentration of 20 μg/mL each in a final volume of 25 μl for an incubation of 1 hour at room temperature in the dark. Interaction between beads was assessed after illumination at 680 nm and reading at 615 nm of on an Ensight instrument. Curve fitting is done in Graphpad Prism 9.0 using 4PL non-linear regression analysis.
Background: Bead proximity is the source of the signal in Alpha formats.

The target is the same in assay [5]. In words: BLI, VHH captured by anti-FLAG antibody on mouse Fc biosensors. The essentials: (§2)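 Binding kinetics of VHHs to rhesus monkey, mouse and human folate receptor alpha were obtained by biolayer interferometry after capture of the VHHs via an anti-FLAG tag antibody on mouse Fc biosensors. Values for kon, koff and the equilibrium dissociation constant (KD) were fitted to a 1:1 binding model.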

Assay [6] addresses T2, mouse folate receptor alpha (mFRα), …. Described as above. The essentials:
as §2

The target of assay [7] is T3, rhesus monkey folate receptor alpha, recombinant (rhesus monkey, UniProt F7BP60 25-233).
T3 construct: also called rhFolR1; rhesus macaque FRα
T3 sequence (F7BP60 entry or part of it): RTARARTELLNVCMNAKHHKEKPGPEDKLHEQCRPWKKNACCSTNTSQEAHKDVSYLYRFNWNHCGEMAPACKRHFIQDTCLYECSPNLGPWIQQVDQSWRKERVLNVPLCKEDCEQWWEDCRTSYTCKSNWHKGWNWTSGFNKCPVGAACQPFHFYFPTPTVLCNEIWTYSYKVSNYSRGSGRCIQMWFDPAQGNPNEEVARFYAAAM
The description is as above. The essentials:
as §2

Assay [8] addresses T4, human folate receptor alpha expressed on cells (transfected HEK293T, HeLa, MCF7, MDA-MB-231) (human, UniProt P15328 25-234).
T4 construct: HEK293T transiently transfected with human FOLR1; also called native human FRα; cell-expressed human FOLR1
In words: flow cytometry on HeLa cells, anti-Flag detection. How it is done:
EC₅₀ values are found in Table 9. Detection of VHH cell binding was done through anti-Flag M2 mIgG1 followed by anti-mFc-PE in flow cytometry. Results are depicted as mean fluorescence intensity ^{∘}MFI).
Off-rates of purified variants were determined to human, mouse, and cynomolgus FRα in BLI. In addition, binding of the affinity optimised variants to cell-expressed human FRα on HeLa cells was determined by flow cytometry ^{∘}FIG. 10 B).

Assay [9] addresses T1, human folate receptor alpha (hFRα), …. As to the kind of experiment: BLI, purified VHH. The gist of the method:
(§3)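 VHH proteins carrying a flag3-His6 tag were expressed in TG-1 E. coli at 0.5 L scale. Each was purified from the periplasmic fraction on Ni Sepharose FastFlow columns, then desalted, and its purity was checked by SDS-PAGE. Biolayer interferometry was used to measure off-rates to human, mouse and cynomolgus folate receptor alpha.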

Assay [10] addresses T2, mouse folate receptor alpha (mFRα), …. As to the kind of experiment: BLI, purified VHH. The essentials: as §3
In assay [11] the target is T5, cynomolgus folate receptor alpha, recombinant (cynomolgus, UniProt A0A2K5U044 25-233).
T5 construct: also called cyFOLR1; cynomolgus FRα
T5 sequence (A0A2K5U044 entry or part of it): as the sequence (F7BP60 entry or part of it) above
In words: BLI, purified VHH. The gist of the method:
as §3

The target of assay [12] is T2, mouse folate receptor alpha (mFRα), …. As to the kind of experiment: BLI tandem binning on mouse FRα; competitor (1st association) 2MFR32. An excerpt:
(§4) VHHs that share high sequence identity in the CDR3 region, a VHH family, are derived from the same B-cell lineage and diverged from each other due to somatic hypermutation or affinity maturation. Typically, VHHs from the same family recognize the same epitope on the target, but may differ in other characteristics ^{∘}De Genst et al 2006 PNAS 103:4586-4591; De Gents et al 2005 J Biol Chem 280:14114-14121). To study whether the VHHs from the different families bound different epitopes, epitope binning was performed using a tandem binding approach in BLI. One VHH from each family was allowed to bind to mouse FRα on the biosensor, followed by binding of the second VHH ^{∘}Table 4).
(§5) Competition between VHHs from different complementarity determining region ^{∘}CDR) 3 families was assessed in a tandem binding assay using biolayer interferometry ^{∘}BLI). Streptavidin biosensors were loaded with biotinylated mouse FRα ^{∘}Acro Biosystems, Cat.nr. FO1-M82E9), followed by binding of anti-FRα VHHs ^{∘}VHH in first association). The biosensors were then transferred to a solution containing a second VHH mixed 1:1 with the first VHH ^{∘}VHH in second association). Using the FortéBio Data Analysis Software the absolute additional binding signal for the second association on top of the first association was calculated. The data were normalized per VHH in first association using the following formula: ^{∘}signal-self)/^{∘}maximum-self) with self being the value of the VHH in first association in combination with the same VHH in second association.

Assay [13] shares this target. As to the kind of experiment: BLI tandem binning on mouse FRα; competitor (1st association) 2HFO42.
From the text: as §4, §5

Assay [14] has the same target. As to the kind of experiment: BLI tandem binning on mouse FRα; competitor (1st association) 2HFO19.
From the text: as §4, §5

The target is the same in assay [15]. As to the kind of experiment: BLI tandem binning on mouse FRα; competitor (1st association) 3MFR60.
From the text: as §4, §5

T1 sequence (P15328 25-233 limits assumed): as the sequence (F7BP60 entry or part of it) above, with T2I, R4W, K37R, P146A, Y171H counted along it
T4 sequence (P15328 25-234 limits assumed): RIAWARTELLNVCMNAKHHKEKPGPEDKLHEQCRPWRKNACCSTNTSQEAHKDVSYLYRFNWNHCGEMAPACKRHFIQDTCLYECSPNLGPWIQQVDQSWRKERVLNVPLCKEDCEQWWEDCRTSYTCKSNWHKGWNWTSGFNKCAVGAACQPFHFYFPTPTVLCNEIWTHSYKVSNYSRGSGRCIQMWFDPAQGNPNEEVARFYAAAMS

B1: P01500002 = h2 variant 2HFO42: 2HF042(Q1E, Q5V, A14P, V40A, L79Y, K83R, K105Q, Q108L)-HIS6 (VHH)
VHH: EVQLVESGGGLVQPGGSLRLSCAASGSGFSGMIMGWYRQAPGKQRELVATVTSHGTTNYADSVKGRFTISRDNAKNTVYLQMNSLRPEDTAVYYCNAHFPGIYWGQGTLVTVSS
notes: Entry includes the tag
What is called koff is the first-order rate constant of dissociation. A word on the EC50 (read off the curve): it is the midpoint of the concentration-response curve. As usually defined, the IC50 is the concentration that gives 50% inhibition. Take B1: the koff in assay [1] is 0.0132 s⁻¹; in assay [2], 0.00307 s⁻¹. The “EC50 (read off the curve)” value in assay [3] was about 5 nM. Also, the 50% inhibitory concentration (IC50) in assay [4] was 43.7 nM.

B2: P01500004: 2HF042(Q1E, Q5V, Q108L)-HIS6 (VHH)
VHH: B1 VHH with P14A, A40V, Y79L, R86K, Q106K
notes: Entry includes the tag; also called 2HFO42 (P01500004); Nb42
For the molecule B2, the koff in assay [1] is 0.0102 s⁻¹; in [2], 0.00193 s⁻¹. In addition, the “EC50 (read off the curve)” value in [3] is about 4 nM. The IC50 in assay [4] came out at 39 nM.

B3: P01500008: 2MFR67(Q1E, Q5V, Q108L)-FLAG3-HIS6 (VHH)
VHH: B1 VHH with P14A, D72E, N73D, A74S, Y79L, R86K, Q106K
notes: Entry includes the tags; also called 2MFR67-Flag3-His6
As usually defined, the Kd is the constant that tells how readily two partners part at equilibrium. For orientation: kon means the second-order rate constant of association. For orientation: EC50 means the concentration giving half of the maximal effect. On to B3, for which the koff in assay [1] amounted to 0.00304 s⁻¹; in [2] it was 0.00042 s⁻¹; in [5] it was 0.0031 s⁻¹; in assay [6], 0.000571 s⁻¹; in assay [7], 0.00434 s⁻¹; in assay [9], 0.00282 s⁻¹. Moreover, the off-rate constant (koff) was determined as 0.000447 s⁻¹ in assay [10] and 0.000454 s⁻¹ in assay [11]. For the same molecule, the figures for the dissociation constant Kd in [5], in assay [6] and in assay [7] were 8.78 nM, 2.52 nM and 13.8 nM, respectively. Besides, the values for the on-rate constant (kon) in [5], in assay [6] and in [7] were 353000 M⁻¹ s⁻¹, 227000 M⁻¹ s⁻¹ and 315000 M⁻¹ s⁻¹, respectively. A half-maximal response in assay [8] (EC50) required 5.6 nM. The molecule further came in with an MFI top in [8] of 54900 MFI.

B4: VHH 2MFR32 (VHH)
VHH: QVQLQESGGGLVQAGGSLRVSCAASGFPFSTVYMSWVRQAPGKGLEWVSGINSNGGVIDYADSVKGRFTISRDNANNTLYLQLNSLKPEDTALYFCAKGRAFVATMPSSLRGQGTQVTVSS
notes: also called 2MF832
Consider B4, for which the “normalized additional binding in 2nd association” value came to 0% in assay [12], 100% in assay [13], 100% in assay [14] and 100% in assay [15].
